Source: patent publication US20210116443A1 (CREATIVE PROTEIN SOLUTIONS, published 2021)

Tests used:
[1] = biological target: T1, HIS-TreAC-EI: N-terminally HIS-tagged fragment of TreA with C-terminal fusion leucine zipper (Escherichia coli O9:H4 (strain HS), UniProt A7ZZD1 97-565); assay: split trehalase complementation, non-complementary zippers Ei+Ei (FIG. 24A)
T1 sequence: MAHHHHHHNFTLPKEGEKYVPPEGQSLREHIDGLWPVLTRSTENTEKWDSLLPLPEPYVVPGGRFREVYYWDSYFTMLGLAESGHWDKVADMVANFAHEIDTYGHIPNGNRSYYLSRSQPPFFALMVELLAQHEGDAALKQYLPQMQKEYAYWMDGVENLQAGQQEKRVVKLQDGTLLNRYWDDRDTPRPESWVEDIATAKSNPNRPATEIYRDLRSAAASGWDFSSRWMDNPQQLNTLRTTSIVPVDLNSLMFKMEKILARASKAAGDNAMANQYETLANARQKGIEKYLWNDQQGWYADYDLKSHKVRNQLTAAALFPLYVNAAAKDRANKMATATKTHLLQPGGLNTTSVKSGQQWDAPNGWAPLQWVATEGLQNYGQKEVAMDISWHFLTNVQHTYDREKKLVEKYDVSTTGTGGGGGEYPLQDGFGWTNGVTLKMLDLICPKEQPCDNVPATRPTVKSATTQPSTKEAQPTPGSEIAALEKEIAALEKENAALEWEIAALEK

[2] = biological target: T2, HIS-TreAC-KI: N-terminally HIS-tagged fragment of TreA with C-terminal fusion leucine zipper (Escherichia coli O9:H4 (strain HS), UniProt A7ZZD1 97-565); assay: cell-based or functional assay
T2 sequence: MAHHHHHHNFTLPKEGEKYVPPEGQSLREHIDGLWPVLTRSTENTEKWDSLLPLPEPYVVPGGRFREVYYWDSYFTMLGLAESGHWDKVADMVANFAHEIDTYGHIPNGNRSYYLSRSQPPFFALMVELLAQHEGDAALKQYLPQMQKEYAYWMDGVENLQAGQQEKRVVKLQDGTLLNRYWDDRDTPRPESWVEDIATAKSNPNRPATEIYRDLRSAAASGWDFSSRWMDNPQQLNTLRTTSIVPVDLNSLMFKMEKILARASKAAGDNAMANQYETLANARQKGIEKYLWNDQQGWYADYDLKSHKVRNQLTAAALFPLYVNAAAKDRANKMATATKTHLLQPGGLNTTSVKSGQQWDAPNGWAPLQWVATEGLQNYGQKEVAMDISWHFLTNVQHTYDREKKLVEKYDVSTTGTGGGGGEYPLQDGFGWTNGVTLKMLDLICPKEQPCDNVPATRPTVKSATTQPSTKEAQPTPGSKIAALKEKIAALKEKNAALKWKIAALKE

[3] = biological target: HIS-TreA^N-bCalm: N-terminally HIS-tagged N-terminal fragment of TreA^N with C-terminal fusion of bovine …; assay: split trehalase complementation with Ca2+, glucose read-out
[4] = biological target: T3, HIS-TreAC: N-terminally HIS-tagged C-terminal fragment of TreA (Escherichia coli O9:H4 (strain HS), UniProt A7ZZD1 97-565); assay: split trehalase complementation, 24 h with trehalose, Benedict's reagent (FIG. 7)
T3 construct: Split E. coli trehalase fragment; also called HIS-tagged TreA^C
T3 sequence: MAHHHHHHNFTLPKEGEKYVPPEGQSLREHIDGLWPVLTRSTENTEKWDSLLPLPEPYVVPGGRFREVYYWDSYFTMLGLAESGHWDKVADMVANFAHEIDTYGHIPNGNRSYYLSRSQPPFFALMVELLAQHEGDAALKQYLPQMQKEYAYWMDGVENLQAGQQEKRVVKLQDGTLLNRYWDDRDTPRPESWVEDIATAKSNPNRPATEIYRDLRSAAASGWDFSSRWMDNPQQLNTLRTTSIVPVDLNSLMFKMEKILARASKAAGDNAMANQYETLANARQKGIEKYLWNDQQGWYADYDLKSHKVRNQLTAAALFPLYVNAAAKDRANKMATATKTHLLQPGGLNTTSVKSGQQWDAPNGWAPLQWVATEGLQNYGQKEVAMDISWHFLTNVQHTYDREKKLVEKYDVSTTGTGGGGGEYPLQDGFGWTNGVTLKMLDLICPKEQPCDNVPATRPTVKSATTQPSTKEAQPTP

[5] = biological target: T4, TreAC-HIS: C-terminally HIS-tagged C-terminal fragment of TreA (Escherichia coli O9:H4 (strain HS), UniProt A7ZZD1 96-565); assay: as above
T4 construct: Split E. coli trehalase fragment; also called HIS-tagged TreA^C
T4 sequence: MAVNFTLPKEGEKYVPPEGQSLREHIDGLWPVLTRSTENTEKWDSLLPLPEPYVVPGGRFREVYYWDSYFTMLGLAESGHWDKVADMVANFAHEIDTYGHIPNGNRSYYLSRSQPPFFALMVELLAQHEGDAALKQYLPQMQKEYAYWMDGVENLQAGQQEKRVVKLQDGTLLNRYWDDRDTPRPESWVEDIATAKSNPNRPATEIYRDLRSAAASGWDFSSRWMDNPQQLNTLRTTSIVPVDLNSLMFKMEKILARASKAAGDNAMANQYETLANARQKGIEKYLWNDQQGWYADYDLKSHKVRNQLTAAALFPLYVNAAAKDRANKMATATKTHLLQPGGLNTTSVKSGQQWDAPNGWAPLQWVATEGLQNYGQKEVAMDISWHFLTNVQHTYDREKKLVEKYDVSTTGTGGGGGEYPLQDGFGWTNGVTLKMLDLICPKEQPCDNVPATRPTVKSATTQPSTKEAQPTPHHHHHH

[6] = biological target: T2, HIS-TreAC-KI: N-terminally HIS-tagged …; assay: split trehalase complementation, non-complementary zippers Ki+Ki (FIG. 24A)

B1: HIS-TreAN-EI: N-terminally HIS-tagged N-terminal fragment of TreA with C-terminal fusion with leucine zipper (other)
chain: MAHHHHHHEETPVTPQPPDILLGPLFNDVQNAKLFPDQKTFADAVPNSDPLMILADYRMQQNQSGFDLRHFVNVNFTLPKEGEKYVPGSVPGSEIAALEKEIAALEKENAALEWEIAALEK
Q: What does the source list for B1?
A: binding result [1]: no binding; glucose signal over 3 h, lyophilized fusions resuspended in acidified bovine blood or milk (glucose strips) [2]: 2 fold

B2: CaMKIIp-TreA^C-HIS: CaMKII peptide N-terminally fused to the C-terminally HIS-tagged C-terminal fragment of TreA (other)
chain: MARRKLKGAILTTMLATRNFVDNFTLPKEGEKYVPPEGQSLREHIDGLWPVLTRSTENTEKWDSLLPLPEPYVVPGGRFREVYYWDSYFTMLGLAESGHWDKVADMVANFAHEIDTYGHIPNGNRSYYLSRSQPPFFALMVELLAQHEGDAALKQYLPQMQKEYAYWMDGVENLQAGQQEKRVVKLQDGTLLNRYWDDRDTPRPESWVEDIATAKSNPNRPATEIYRDLRSAAASGWDFSSRWMDNPQQLNTLRTTSIVPVDLNSLMFKMEKILARASKAAGDNAMANQYETLANARQKGIEKYLWNDQQGWYADYDLKSHKVRNQLTAAALFPLYVNAAAKDRANKMATATKTHLLQPGGLNTTSVKSGQQWDAPNGWAPLQWVATEGLQNYGQKEVAMDISWHFLTNVQHTYDREKKLVEKYDVSTTGTGGGGGEYPLQDGFGWTNGVTLKMLDLICPKEQPCDNVPATRPTVKSATTQPSTKEAQPTPHHHHHH
notes: also called MaMKII peptide fused to C-terminal fragment of TreA
Q: Does B2 bind [3]?
A: Result: binds

B3: TreAN-HIS: C-terminally HIS-tagged N-terminal fragment of TreA (w/o signal peptide) (other)
chain: MEETPVTPQPPDILLGPLFNDVQNAKLFPDQKTFADAVPNSDPLMILADYRMQQNQSGFDLRHFVNVNFTLPKEGEKYVPHHHHHH
notes: Split E. coli trehalase fragment; also called HIS-tagged TreA^N
Q: Which results are given for B3?
A: binding result [4]: no binding; binding result [5]: no binding

B4: HIS-TreAN-KI: N-terminally HIS-tagged N-terminal fragment of TreA with C-terminal fusion with leucine zipper (other)
chain: MAHHHHHHEETPVTPQPPDILLGPLFNDVQNAKLFPDQKTFADAVPNSDPLMILADYRMQQNQSGFDLRHFVNVNFTLPKEGEKYVPGSVPGSKIAALKEKIAALKEKNAALKWKIAALKE
Q: Does B4 bind [6]?
A: Result: no binding
